The labels stand for the following.
B1: glmS ribozyme (parent)
chain: AUAAAAGCGCCAGAACUACAGAAAUGUAGUUGACGAGGAGGAGGUUUAUCGAAUUUUCGGCGGAUGCCUCCAAA

Holding throughout (details): with glucosamine-6-phosphate
Variants of B1 are the subject of series [1]. Briefly: self-cleavage kobs at 40 uM GlcN6P; higher = faster cleavage; RNA array. In a few lines:
(§1)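 Tiles of sequenced MiSeq chips were imaged over ~14 h at 37 °C. On them, barcoded ribozyme variants had been transcribed in situ by E. coli RNA polymerase and were tracked via a hybridised Cy3 probe while glucosamine-6-phosphate (40 μM to 10 mM) in HEPES/KCl/Mg(OAc)2 buffer flowed in. Per-tile medians, normalised to baseline and to non-cleaving reference variants, were fit to one- or two-exponential decays for kobs, and weighted Michaelis–Menten fits gave kcat and KM.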

In series [2] the parent is B1. Briefly: self-cleavage kobs at 10000 uM GlcN6P; higher = faster cleavage; RNA array. The method in brief:
as §1

The variants in series [3] derive from B1. Briefly: self-cleavage kobs at 2500 uM GlcN6P; higher = faster cleavage; RNA array. The method in brief:
as §1

The variants in series [4] derive from B1. Nature of the series: self-cleavage kobs at 160 uM GlcN6P; higher = faster cleavage; RNA array. In a few lines: as §1
Series [5] covers variants of B1. Nature of the series: self-cleavage kobs at 640 uM GlcN6P; higher = faster cleavage; RNA array. In a few lines:
as §1

± gives the standard error. Variants at the floor of the assay were thinned out.

Take A6C G51U U56A: in series [1], the “self-cleavage kobs at 40 uM GlcN6P” value was below 1e-05 s⁻¹.

As for G29U G35U A36G, in series [1], the “self-cleavage kobs at 40 uM GlcN6P” value is below 1e-05 s⁻¹.

Take G13A U31A A48C C50U G60U C67A: the “self-cleavage kobs at 40 uM GlcN6P” value in series [1] was below 1e-05 s⁻¹. The “self-cleavage kobs at 10000 uM GlcN6P” value in series [2] is below 1e-05 s⁻¹.

G9A A14G G32U U65A: the “self-cleavage kobs at 40 uM GlcN6P” value in series [1] was below 1e-05 s⁻¹. In series [3], the “self-cleavage kobs at 2500 uM GlcN6P” value was below 1e-05 s⁻¹. Further, in series [2], the “self-cleavage kobs at 10000 uM GlcN6P” value was below 1e-05 s⁻¹.

G35C C61G: the “self-cleavage kobs at 40 uM GlcN6P” value in series [1] was below 1e-05 s⁻¹. Further, in series [4], the “self-cleavage kobs at 160 uM GlcN6P” value is below 1e-05 s⁻¹. Besides, the “self-cleavage kobs at 640 uM GlcN6P” value in series [5] is below 1e-05 s⁻¹.

In the case of C10A G38U G40A, in series [1], the “self-cleavage kobs at 40 uM GlcN6P” value was below 1e-05 s⁻¹. The “self-cleavage kobs at 160 uM GlcN6P” value in series [4] is below 1e-05 s⁻¹. Also, the “self-cleavage kobs at 640 uM GlcN6P” value in series [5] was below 1e-05 s⁻¹. The “self-cleavage kobs at 2500 uM GlcN6P” value in series [3] was below 1e-05 s⁻¹. Further, in series [2], the “self-cleavage kobs at 10000 uM GlcN6P” value was below 1e-05 s⁻¹.

As for G9A C10A C11U U56G C71U, the “self-cleavage kobs at 40 uM GlcN6P” value in series [1] is below 1e-05 s⁻¹. In addition, in series [3], the “self-cleavage kobs at 2500 uM GlcN6P” value was below 1e-05 s⁻¹. In series [2], the “self-cleavage kobs at 10000 uM GlcN6P” value was below 1e-05 s⁻¹.

On to A33U G40A G62C, for which the “self-cleavage kobs at 40 uM GlcN6P” value in series [1] is below 1e-05 s⁻¹.

As to A48G U65C, the “self-cleavage kobs at 40 uM GlcN6P” value in series [1] was below 1e-05 s⁻¹. Besides, the “self-cleavage kobs at 10000 uM GlcN6P” value in series [2] is below 1e-05 s⁻¹.

For the variant G37A C50G C70G, in series [1], the “self-cleavage kobs at 40 uM GlcN6P” value turned out to be 4.31e-05 ± 2.1e-05 s⁻¹.

With G32U G35U, the “self-cleavage kobs at 40 uM GlcN6P” value in series [1] was below 1e-05 s⁻¹. In addition, the “self-cleavage kobs at 160 uM GlcN6P” value in series [4] was below 1e-05 s⁻¹. The “self-cleavage kobs at 640 uM GlcN6P” value in series [5] is below 1e-05 s⁻¹. Moreover, in series [3], the “self-cleavage kobs at 2500 uM GlcN6P” value is below 1e-05 s⁻¹. Besides, the “self-cleavage kobs at 10000 uM GlcN6P” value in series [2] was below 1e-05 s⁻¹.

In the case of C34G G40C, the “self-cleavage kobs at 40 uM GlcN6P” value in series [1] is below 1e-05 s⁻¹. In addition, the “self-cleavage kobs at 640 uM GlcN6P” value in series [5] was below 1e-05 s⁻¹. Moreover, the “self-cleavage kobs at 10000 uM GlcN6P” value in series [2] is below 1e-05 s⁻¹.

For A14G U47G, the “self-cleavage kobs at 40 uM GlcN6P” value in series [1] was determined as 0.00069 ± 9.9e-05 s⁻¹. Besides, in series [4], the “self-cleavage kobs at 160 uM GlcN6P” value is 0.00132 ± 0.0004 s⁻¹. Also, the “self-cleavage kobs at 640 uM GlcN6P” value in series [5] was found to be 0.00356 ± 0.00073 s⁻¹. Further, the “self-cleavage kobs at 2500 uM GlcN6P” value in series [3] is 0.0139 ± 0.0037 s⁻¹. Further, the “self-cleavage kobs at 10000 uM GlcN6P” value in series [2] was determined as 0.0324 ± 0.0073 s⁻¹.

Regarding C10G C16G G40U, the “self-cleavage kobs at 40 uM GlcN6P” value in series [1] was below 1e-05 s⁻¹. Besides, the “self-cleavage kobs at 2500 uM GlcN6P” value in series [3] is below 1e-05 s⁻¹.

Regarding U46C C61G, the “self-cleavage kobs at 40 uM GlcN6P” value in series [1] was below 1e-05 s⁻¹. For the same variant, the “self-cleavage kobs at 160 uM GlcN6P” value in series [4] is below 1e-05 s⁻¹. In addition, the “self-cleavage kobs at 640 uM GlcN6P” value in series [5] is below 1e-05 s⁻¹. Further, the “self-cleavage kobs at 2500 uM GlcN6P” value in series [3] is below 1e-05 s⁻¹.

Take A6U G7U C10A G29A C34A C67G C68A C71U: the “self-cleavage kobs at 40 uM GlcN6P” value in series [1] was 9.49e-05 ± 2.1e-05 s⁻¹. For the same variant, the “self-cleavage kobs at 640 uM GlcN6P” value in series [5] came to 6.07e-05 ± 1.4e-05 s⁻¹. In addition, in series [2], the “self-cleavage kobs at 10000 uM GlcN6P” value came out at 3.01e-05 ± 1.4e-05 s⁻¹.

With C10G U47A, the “self-cleavage kobs at 40 uM GlcN6P” value in series [1] was below 1e-05 s⁻¹. In addition, the “self-cleavage kobs at 160 uM GlcN6P” value in series [4] is below 1e-05 s⁻¹. In addition, in series [5], the “self-cleavage kobs at 640 uM GlcN6P” value is below 1e-05 s⁻¹.

Take A6U U57G: the “self-cleavage kobs at 40 uM GlcN6P” value in series [1] was below 1e-05 s⁻¹.

Regarding C16U G29C, the “self-cleavage kobs at 40 uM GlcN6P” value in series [1] was 0.000447 ± 6.3e-05 s⁻¹. In series [4], the “self-cleavage kobs at 160 uM GlcN6P” value was determined as 0.000622 ± 9.5e-05 s⁻¹. Moreover, the “self-cleavage kobs at 640 uM GlcN6P” value in series [5] was determined as 0.00244 ± 0.00032 s⁻¹. Also, the “self-cleavage kobs at 2500 uM GlcN6P” value in series [3] stood at 0.00422 ± 0.00072 s⁻¹. Besides, in series [2], the “self-cleavage kobs at 10000 uM GlcN6P” value worked out at 0.0179 ± 0.0033 s⁻¹.

Regarding C10A U30G A39U C67A, the “self-cleavage kobs at 40 uM GlcN6P” value in series [1] was below 1e-05 s⁻¹.

Regarding A6C C50A, in series [1], the “self-cleavage kobs at 40 uM GlcN6P” value was below 1e-05 s⁻¹. The “self-cleavage kobs at 10000 uM GlcN6P” value in series [2] is below 1e-05 s⁻¹.

On to G29A A39U U69A, for which the “self-cleavage kobs at 40 uM GlcN6P” value in series [1] is below 1e-05 s⁻¹.

As for G40A C50G G66C, in series [1], the “self-cleavage kobs at 40 uM GlcN6P” value turned out to be 0.00112 ± 0.00049 s⁻¹. The “self-cleavage kobs at 10000 uM GlcN6P” value in series [2] was 0.00127 ± 0.00049 s⁻¹.

As for U30A U31A, the “self-cleavage kobs at 40 uM GlcN6P” value in series [1] turned out to be 0.000419 ± 7.6e-05 s⁻¹. For the same variant, the “self-cleavage kobs at 160 uM GlcN6P” value in series [4] was found to be 0.00152 ± 0.00033 s⁻¹. The “self-cleavage kobs at 640 uM GlcN6P” value in series [5] was 0.00269 ± 0.00057 s⁻¹. Further, the “self-cleavage kobs at 2500 uM GlcN6P” value in series [3] was 0.0075 ± 0.0013 s⁻¹. The “self-cleavage kobs at 10000 uM GlcN6P” value in series [2] came out at 0.0264 ± 0.0056 s⁻¹.

Consider C34A G41C A53G U54A U56G, for which the “self-cleavage kobs at 40 uM GlcN6P” value in series [1] was below 1e-05 s⁻¹. The “self-cleavage kobs at 10000 uM GlcN6P” value in series [2] is below 1e-05 s⁻¹.

(Values after the supplement of paper PMC7125110.)
